Data published in the nanobody polyreactivity screen of Harvey et al. (2022).

Test: yeast display, Sf9 membrane polyspecificity reagent, FACS + sequencing; frameworks hold sequencing errors
How it was run: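 Nanobodies came from a synthetic yeast display library in Saccharomyces cerevisiae BJ5465, induced with galactose for 36–48 hours and stained for 1 hour at 4 °C with 10% biotinylated, detergent-solubilized Sf9 membrane reagent. Cells were enriched on streptavidin microbeads and then FACS-sorted, with low and high (top ~1%) gates set on anti-HA fluorescence for expression and streptavidin fluorescence for reagent binding. Each polyreactivity label reflects the gate a clone came from. Genes were amplified by colony PCR, sequenced by MiSeq 2 × 250 and filtered by CDR length.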

Sequence | polyreactivity (PSR sort gate)
QVQLEESGGGLVQAGGSLRLSCAASGFIFWANAMGWYRQAPGKERELVAAIRYSGGRTYYADSVKGRFTSSRDTAKNTFFLLMNSLIPEDTAVYYCAKEYKNYGGFVVEYDYWGQGTQVNVSS | low polyreactivity
QVQLEESGGGLVQAGGSLRLSCAASGFILCDYAMGWYRQATGKERELVAGINYRGGSTHYADSVKGRFTISRDIAKNTVYLQMNSLKPEDTAVYYCSKRRQSYPYKTSTWYSHYSWGQGTQVTVSS | high polyreactivity
QVQLEESGGGLVQAGGSLRLSCAASGFILSGNTMGWYRPAPGKERELVAGITYTGGSTYYADSVKGRFTISRDNAKNTVYLQMNSLKPEDTAVYYCAVDVAGGEGMDYWGHGTQVTVSS | low polyreactivity
QVQLEESGGGLVQAGGSLRLSCAASGFIYAHYAMGWYRQAPGKERELVAAISSRGGSTYYADSVKGRFTISRDYAKNPVYLQINSLKPEDTAVYYCAKARHRPARGYEYWGLGTQVTVSS | high polyreactivity
QVQLEESGGGLVQAGGSLRLSCAASGFTFAYYAMGWYSQAPGKERELVAAISRSGGRTNYADSVKGRFTISRDNAKNTVYLQMNSLKPEETAVYYCNKQQTPRYWWSPYGGYDYWGQGTQGTVSS | high polyreactivity
QVQLEESGGGLVQAGGSLRLSCAASGFTFRAYAMGWYRQAPGKERELVAANTYSGDRTYYADSVKGRFTITRDNAKKTVYLQMNSLKPEDTAVYYCAAYGAKVNRPGYYYWGQGTQVTVSS | high polyreactivity
QVQLEESGGGLVQAGGSLRLSCAASGGIFGWYTMGWNRQAPGKERELVAAINFSGSRTYYADSVKGRFTISRHNAKNTVYLQMNSLKPEDTAVYYCNAVYHQFRVEYWGQGTQVTVSS | high polyreactivity
QVQLEESGGGLVQAGGSLRLSCAASGGIFPAYAMGWYRQAPGKERELVASISANGGRTYYADSVKGRFTISRDNAKNTVYLQMNSLKPEDTAVYYCNASSLSGSWRFYYWGQGTQVTVSS | high polyreactivity
QVQLEESGGGLVQAGGSLRLSCAASGITFEAYAMGWYRQAPGKERELVAAIRSSGTSTYYADSVMGRFTISRDNAKNTVYLQMNSLKPEDTAVYYCNRARSSSRYDYWGQGTQVTVSS | low polyreactivity
QVQLEESGGGLVQAGGSLRLSCAASGITFVTYAMGWYRQAPGKERELVAAISRSGGRTYYADSVKGRFTISRDNAKNTVYLQMNSLKPEDTAVYYCAAERKNKYDYWGQGTQVTVSS | high polyreactivity
QVQLEESGGGLVQAGGSLRLSCAASGITFYYNDMGWYRQAPGKERELVAAISSGGTTNYADSVKGRFTISRDNAKNTFYLAMNSLKPEDTAVYYCATGYAEPEWDPFVSDYDYWGQGTQVTVSS | low polyreactivity
QVQLEESGGGLVQAGGSLRLSCAASGITIRIYAKGCYRQAPGKERELVAGISSSGSTNYADSVKGRFTISRDNAKNTVYLQMNSLKPEDTAVYYCAADAFYIFDYWGQGTQVTVSS | high polyreactivity
QVQLEESGGGLVQAGGSLRLSCAASGLIFVDNAMGGSRQATGKERALVASIDSGGSTNYADSVKGRFTISRDNAKNTFYLQMNSLKPEDTAVYYCSADWIYAPWYYQESVEYYYWGQGTQVTVSS | low polyreactivity
QVQLEESGGGLVQAGGSLRLSCAASGLIFWAYAMGWYRQAPGKDTELVAAINWRGGSTYYADSVKGRFTISRDNAKNTVYLQMNSLKPEDTAVYFCAGDSSYDEYDYWGQGTQVTVSS | low polyreactivity
QVQLEESGGGLVQAGGSLRLSCAASGMILTYYAMAWNRQAPGKERELVAGISSGTNTNYADSVKWRFTISRDNAKNTVYLQMNSLKPEDTAVYYCANTRGYEFVAYGYWGQGTQVNVSS | low polyreactivity
QVQLEESGGGLVQAGGSLRLSCAASGNIFYYYAMGWYRQAPGKEREVVATITSGGSTNYADSVKGRFTISRDNAKNTVYLQMNSLKPEDTAVYYCAADRRRTYYWLSSYFEGYYWGQGTQVTVSS | low polyreactivity
QVQLEESGGGLVQAGGSLRLSCAASGNTFYLYAMGWYRQAPGKERELVASITGGTRTNYADSVKGRFTISRDNAKNTVYLQMNSLKPEDTAVYYCAKTYPRTVGKYLSRGGYYYWGQGTQVTVSS | high polyreactivity
QVQLEESGGGLVQAGGSLRLSCAASGPIFVGYAMGWSRQAPGKEREFLAAISRDGDNTFYADSVKGRFTISRDYAKNTVYLQMYSLKPEDTAVYYCAVDYWVWYGCAYAYDYYWGQGTQVSVSS | low polyreactivity
QVQLEESGGGLVQAGGSLRLSCAASGRIFDDNAMGWYRQAPGKERELVAAISSGDSTKYADSVKGRFTISRDNAKNTVYLQMNSLKPEDTAVYYCAAERNHGLVGSESVGRNDYWGQGTQVTVSS | low polyreactivity
QVQLEESGGGLVQAGGSLRLSCAASGRIFGYYAMGWYRKAPGKERELVAAIRRSGASTYYADSVKGRFTISRDNAENTVYLQMYSLKPVDTAVYYCSQAGYSPVYGYWGQGTQVTVSS | high polyreactivity
QVQLEESGGGLVQAGGSLRLSCAASGRIFGYYAMGWYRQAPGKERELVATITFGGGSTYYADSVKGRFTISRDNAKNTVYLQMNSLKPEDTAVYYCAADSGYLGIYGDEYSWGQGTQVTVSS | low polyreactivity
QVQLEESGGGLVQAGGSLRLSCAASGRIFIRNAMGWYRQAPGKERELVAAISYSGGSTYYADSVKGRFTISRDNAKNTVYLQMNSLKPEDTAVYYCAAGSIRGTSFYYWGQGTQVTVSS | high polyreactivity

Sequence | polyreactivity (PSR sort gate)
QVQLEESGGGLVQAGGSLRLSCAASGRIFQYYVRGWYRQAPGKERELVAAITRRGTNTYYADSVKGRFTISRDNAKNTVYLQMHSLNPEETAVYYCAATYYWSGYPVKTTSDYWGQGTQITVSS | high polyreactivity
QVQLEESGGGLVQAGGSLRLSCAASGRIFYAYGIGWYRQAPVKERELVAAISSGDSTNYADSVKGRFTISRDNAKNTVYFQMNSLKPEDTAVYYCAKDGSPLQLTDPTHDYEYWGQGTQVTVSS | low polyreactivity
QVQLEESGGGLVQAGGSLRLSCAASGRIFYRNAMGWYRQAPGKERELVAAISSSAGSTYYADSVKGRFTISRDHAKNTVYLQMNSLKPEDTAVYYCAAGSGTFVTRYRYDYWGQGTQVTVSS | high polyreactivity
QVQLEESGGGLVQAGGSLRLSCAASGRIFYWYAMGWYRQAPGKERELVATISSAGTTYYADSVKGRFTISRDNAKNTVYLQMNSLKPEDTAVYYCAVPRVGLHGIGSDYWGQGTQVTVSS | high polyreactivity
QVQLEESGGGLVQAGGSLRLSCAASGRILRGYVMGWYRQAPGKERELVATITGRGGSTYYADSVKGRFTISRDNAKNTVYLQMNSLKPEDTAVYYCNKDGYPYFGRSEYWGQGTQVTVSS | low polyreactivity
QVQLEESGGGLVQAGGSLRLSCAASGRILYGYAKGSYRQAPGKERELVASITWSGGSTYADSVKGRFTFSRDNAKNTVYLQMNSLKTEDTSVYYCSTRRGQKWQWLTYGYWGQGTQVTVSS | low polyreactivity
QVQLEESGGGLVQAGGSLRLSCAASGRSFNHNAMGWYRQAPGKERELVAAINQSGSSTYYADSVKGRFTISRDNAKNTVYLQMNSLKREDTAVYYCAAVCNGVDYEYWGQGTQVTVSS | low polyreactivity
QVQLEESGGGLVQAGGSLRLSCAASGRTFGWNVMGWYRQAPGKERELVAAISGGGTSTYYADSVKGRFTISRDNAKNTVYLQMNSLNPEDTAVYYCNAYYPGSYYPRSGRYDYWGQGTQVTVSS | high polyreactivity
QVQLEESGGGLVQAGGSLRLSCAASGRTFKINAMGWYRQAPGKERELVAAIRRRGGSTYYADSVKGRFTISRDNAKNTVYLQMNSLKPEDTAVYYCAKTSWPYRVPSDSVAYDYWGQGTQVTVSS | low polyreactivity
QVQLEESGGGLVQAGGSLRLSCAASGRTFRFYAMGWYRQAPGKERELVAAISESGGNTYYADSVKGRFTISRDNAKNTVYLQMNSLKPEDTAVYYCAARGRWKYNYWGQGTQVTVSS | high polyreactivity
QVQLEESGGGLVQAGGSLRLSCAASGRTFSANTMGLYRKATGKERELVAAISKSGGSTYYADSVKGRLTISRDTAKYTVYLQMNSLNPEDTAVYYCAARTSGYWYSYGSWGQGTQVTVSS | high polyreactivity
QVQLEESGGGLVQAGGSLRLSCAASGRTFSVNPMRWYRQAPGKERELVAAISWSTGSTYYADSVKGRFTISRDNAKNTVYLQMNSLKPEDTAVYYCAKLYEYRRSRYRTYGYWGQGTQVTVSS | high polyreactivity
QVQLEESGGGLVQAGGSLRLSCAASGRTFYIYAMGWYRQAAGKERELVAAITWSGGTTYYADSVKGRFTISRDNAKNTVYLQMNSLKPEDTAVYDCNAGATYVKRRRGRKYDYWGQGTQVTVSS | low polyreactivity
QVQLEESGGGLVQAGGSLRLSCAASGRTLKVYAMGWYRTAPGKERELVAAINNGGSTNYADSVKGRFTISRDNAKNTVFLQMNSLKPEDTAVYYFNAVYYARFRKYTYYYWGQGTQVTVSS | high polyreactivity
QVQLEESGGGLVQAGGSLRLSCAASGRTSRVYAMGWYRQAPGKERELVAAITWRGGNTYYADSVKGRFTISRDNAKNTVYLQMNSLKPEDTAVYYCARDNGSPYHYYYWGQGTQVTVSS | high polyreactivity
QVQLEESGGGLVQAGGSLRLSCAASGSIFDYYAMGWYRQAPGTERELVATITSGVSTYYADSVKGRFTISRDNAKNTVYLQMNSLKPEETAVYYCARDYAKSQDVYKYDYWGQGTQVTVSS | low polyreactivity
QVQLEESGGGLVQAGGSLRLSCAASGSIFEGNGMGWYRPAPGKERELVAAITFRSGSTYYADSVKGRFTISRDNAKNTVYLQMNSLKPEDTAVYYCAADEYYKVSAYDFWGQGTQVTVSS | low polyreactivity
QVQLEESGGGLVQAGGSLRLSCAASGSIFFEYAMGWYRQAAGKERELVASINRGGGSTYYADSVKGRYTISRDNAKKNVYLQMNSLKPEDTAVYYCAAQWKYRQSYLDYYWGQGTQVTVSS | low polyreactivity
QVQLEESGGGLVQAGGSLRLSCAASGSIFLGNAMGWYRQAPGKERDLVAAISGGDSTNYADAVKGRFTISRDNAKNTGYLEMNCLKPEDTAVYYCNAVRTLYIWWPGYYYCGQGTQVTVSS | low polyreactivity
QVQLEESGGGLVQAGGSLRLSCAASGSIFSPNAMGWYRQAPGKERELVAAISSNGVSTYYADSVKGRFTISRDNAKNTVYLQMNSLKPEDTAVYYCAAVSIGPGEYDYWGQGTQVTVSS | low polyreactivity
QVQLEESGGGLVQAGGSLRLSCAASGSIFTNAMGWYRQAPGKERELVAAISSSGGSTYYADSVKGRFTISRDNAKNTVYLQMNSLKPEDTAVYYCAADHYGGRDYWGQGTQVTVSS | low polyreactivity
